Measured values: patent US20130089893A1 (TRILLIUM THERAPEUTICS, published 2013)

B1: recombinant soluble FcγRIIa dimer (rsFcγRIIa dimer), head to tail homodimer construct of FIG. 1 (receptor)
chain: QAAAPPKAVLKLEPPWINVLQEDSVTLTCQGARSPESDSIQWFHNGNLIPTHTQPSYRFKANNNDSGEYTCQTGQTSLSDPVHLTVLSEWLVLQTPHLEFQEGETIMLRCHSWKDKPLVKVTFFQNGKSQKFSHLDPTFSIPQANHSHSGDYHCTGNIGYTLFSSKPVTITVQVPSMGSSSPVAPPKAVLKLEPPWINVLQEDSVTLTCQGARSPESDSIQWFHNGNLIPTHTQPSYRFKANNNDSGEYTCQTGQTSLSDPVHLTVLSEWLVLQTPHLEFQEGETIMLRCHSWKDKPLVKVTFFQNGKSQKFSHLDPTFSIPQANHSHSGDYHCTGNIGYTLFSSKPVTITVQVPSMGSSSPHHHHHH
B2: recombinant soluble D2FcγRIIaFc (D2) protein (Fc fusion)
chain: QAAAPPKAVLKLEPPWINVLQEDSVTLTCQGARSPESDSIQWFHNGNLIPTHTQPSYRFKANNNDSGEYTCQTGQTSLSDPVHLTVLSEWLVLQTPHLEFQEGETIMLRCHSWKDKPLVKVTFFQNGKSQKFSHLDPTFSIPQANHSHSGDYHCTGNIGYTLFSSKPVTITVQVPSMGSSSPVAPPKAVLKLEPPWINVLQEDSVTLTCQGARSPESDSIQWFHNGNLIPTHTQPSYRFKANNNDSGEYTCQTGQTSLSDPVHLTVLSEWLVLQTPHLEFQEGETIMLRCHSWKDKPLVKVTFFQNGKSQKFSHLDPTFSIPQANHSHSGDYHCTGNIGYTLFSSKPVTITVQVPSMGSSSPPRGPTIKPCPPCKCPAPNLEGGPSVFIFPPKIKDVLMISLSPIVTCVVVDVSEDDPDVQISWFVNNVEVHTAQTQTHREDYNSTLRVVSALPIQHQDWMSGKAFACAVNNKDLPAPIERTISKPKGSVRAPQVYVLPPPEEEMTKKQVTLTCMVTDFMPEDIYVEWTNNGKTELNYKNTEPVLDSDGSYFMYSKLRVEKKNWVERNSYSCSVVHEGLHNHHTTKSFSRTPGK

Legend:
[1] = target: ovalbumin-anti-ovalbumin immune complexes (OVA ICs); assay: cell-based or functional assay
[2] = target: heat-aggregated IgG (HAGG); assay: cell-based or functional assay

Row | Binder | IC50, TNF-α release from MC/9 cells induced by OVA ICs [1] [µg/mL] | fold potency against rsFcγRIIa monomer, MC/9 TNF-α release [1] [fold] | fold potency against BIF and M2, loss of CD62L on human neutrophils induced by OVA ICs [1] [fold] | fold potency against Fc-tagged monomer (M2), MC/9 TNF-α release [1] [fold] | fold potency against the non-Fc tagged dimer, MC/9 TNF-α release [1] [fold] | fold potency against BIF and M2, HAGG-induced platelet activation (CD41 and CD62P positive) [2] [fold]
1 | B1 | 2.1 | 8 |  |  |  | 
2 | B2 |  |  | ~6 | 12 | 3 | ~3
